{"source": "patent US20080124811A1", "binders": {"B1": {"name": "106.3 AM1 chimeric antibody (antibody, V domains shown)", "VH": "QIQLVQSGPELRKPGETVKISCKGSGYTFTHYGINWVKQTPRKDLKWMGWINTHTGEAYYADDFKGRFAFSLETSANTAYLQINNLNNGDMGTYFCTRSHRFGLDYWGQGTSVTVSS", "VL": "DNVLTQSPPSLAVSLGQRATISCKANWPVDYNGDSYLNWYQQKPGQPPKFLIYAASNLESGIPARFSGSGSGTDFNLNIHPVEEEDAATYYCQQSNEDPFTFGSGTKLEIK", "modifications": "Conjugated to acridinium or biotinylated in the sandwich assays (Examples 4 and 7); the sites are not defined."}}, "key": {"[1]": {"substrate": "T1, BNP single alanine substituted peptide, F11 to alanine (human)", "T1 sequence (peptide, cyclic hBNP 1-32)": "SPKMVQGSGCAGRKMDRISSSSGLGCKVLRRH", "assay": "BIAcore SPR, AM1 captured on goat anti-human Fc, peptide at 10 nM, 1800 s dissociation"}, "[2]": {"substrate": "T2, BNP single alanine substituted peptide, R13 to alanine (human)", "T2 sequence (peptide, cyclic hBNP 1-32)": "T1 sequence (peptide, cyclic hBNP 1-32) with A11F, R13A", "assay": "BIAcore SPR, AM1 captured on goat anti-human Fc, peptide at 10 nM, 1800 s dissociation"}}, "note": "Changes are numbered by the printed parent chain."}
{"binder": "B1", "values": [{"measurement": "fold increase in off-rate against WT BNP", "setting": "[1]", "value": "> 10", "unit": "fold"}, {"measurement": "fold increase in off-rate against WT BNP", "setting": "[2]", "value": "> 10", "unit": "fold"}]}
